This is an account of results in patent US10196657B2, “Methods of producing 7-carbon chemicals via methyl-ester shielded carbon chain elongation” (INVISTA North America S.á r.l., priority 2012, dated 2019).

For experiment [1] the following is noted: Haywood et al. 1988; Slater et al. 1998; cited from earlier work.
The conditions of experiment [2]: Samsonova et al., 2003; cited from earlier work.
Experiment [3] can be described thus: Carboxylate reductase activity assay, pimelate to pimelate semialdehyde (NADPH consumption). Type of experiment: biochemical. Conditions: purified enzyme enhanced by sfp gene product, 2 mM pimelate, room temperature, 20 min; against empty vector control; FIG. 10. The method, then:
A sequence encoding a HIS-tag was added to the genes from Segniliparus rugosus and Segniliparus rotundus that encode the carboxylate reductases of SEQ ID NOs: 4 and 7, respectively (see FIGS. 7C and 7F), such that N-terminal HIS tagged carboxylate reductases could be produced. Each of the modified genes was cloned into a pET Duet expression vector along with a sfp gene encoding a HIS-tagged phosphopantetheine transferase from Bacillus subtilis, both under the T7 promoter. Each expression vector was transformed into a BL21[DE3] E. coli host and the resulting recombinant E. coli strains were cultivated at 37° C. in a 250 mL shake flask culture containing 50 mL LB media and antibiotic selection pressure, with shaking at 230 rpm. Each culture was induced overnight at 37° C. using an auto-induction media.
The pellet from each induced shake flask culture was harvested via centrifugation. Each pellet was resuspended and lysed via sonication, and the cell debris was separated from the supernatant via centrifugation. […]
Enzyme activity assays (i.e., from pimelate to pimelate semialdehyde) were performed in triplicate in a buffer composed of a final concentration of 50 mM HEPES buffer (pH=7.5), 2 mM pimelate, 10 mM MgCl2, 1 mM ATP and 1 mM NADPH. […] The consumption of NADPH was monitored by absorbance at 340 nm.

Experiment [4] is described as follows: ω-transaminase activity assay, 7-aminoheptanol to 7-oxoheptanol. It counts as biochemical. The method, then: A nucleotide sequence encoding an N-terminal His-tag was added to the Chromobacterium violaceum, Pseudomonas syringae and Rhodobacter sphaeroides genes encoding the ω-transaminases of SEQ ID NOs: 8, 10 and 11, respectively (see FIGS. 7F and 7G) such that N-terminal HIS tagged ω-transaminases could be produced. The modified genes were cloned into a pET21a expression vector under the T7 promoter. Each expression vector was transformed into a BL21[DE3] E. coli host. Each resulting recombinant E. coli strain were cultivated at 37° C. in a 250 mL shake flask culture containing 50 mL LB media and antibiotic selection pressure, with shaking at 230 rpm. Each culture was induced overnight at 16° C. using 1 mM IPTG.
(§1) The pellet from each induced shake flask culture was harvested via centrifugation. Each pellet was resuspended and lysed via sonication. The cell debris was separated from the supernatant via centrifugation and the cell free extract was used immediately in enzyme activity assays.
Enzyme activity assays in the reverse direction (i.e., 7-aminoheptanol to 7-oxoheptanol) were performed in a buffer composed of a final concentration of 50 mM HEPES buffer (pH=7.5), 10 mM 7-aminoheptanol, 10 mM pyruvate, and 100 μM pyridoxyl 5′ phosphate. Each enzyme activity assay reaction was initiated by adding cell free extract of the ω-transaminase gene product or the empty vector control to the assay buffer containing the 7-aminoheptanol and then incubated at 25° C. for 4 h, with shaking at 250 rpm. The formation of L-alanine was quantified via RP-HPLC.

The nature of experiment [5]: ω-transaminase activity assay, reverse direction (7-aminoheptanoate to pimelate semialdehyde). Type of experiment: biochemical. Conditions: cell free extract, 10 mM 7-aminoheptanoate, 10 mM pyruvate, 25° C., 4 h; against empty vector control; FIG. 15. On the procedure:
(§2) A sequence encoding an N-terminal His-tag was added to the genes from Chromobacterium violaceum, Pseudomonas syringae, Rhodobacter sphaeroides, and Vibrio Fluvialis encoding the ω-transaminases of SEQ ID NOs: 8, 10, 11 and 13, respectively (see FIGS. 7F and 7G) such that N-terminal HIS tagged ω-transaminases could be produced. Each of the resulting modified genes was cloned into a pET21a expression vector under control of the T7 promoter and each expression vector was transformed into a BL21[DE3] E. coli host. The resulting recombinant E. coli strains were cultivated at 37° C. in a 250 mL shake flask culture containing 50 mL LB media and antibiotic selection pressure, with shaking at 230 rpm. Each culture was induced overnight at 16° C. using 1 mM IPTG.
as §1
Enzyme activity assays in the reverse direction (i.e., 7-aminoheptanoate to pimelate semialdehyde) were performed in a buffer composed of a final concentration of 50 mM HEPES buffer (pH=7.5), 10 mM 7-aminoheptanoate, 10 mM pyruvate and 100 μM pyridoxyl 5′ phosphate. Each enzyme activity assay reaction was initiated by adding cell free extract of the ω-transaminase gene product or the empty vector control to the assay buffer containing the 7-aminoheptanoate and incubated at 25° C. for 4 h, with shaking at 250 rpm. The formation of L-alanine from pyruvate was quantified via RP-HPLC.

The nature of experiment [6]: ω-transaminase activity assay, forward direction (pimelate semialdehyde to 7-aminoheptanoate). Type of experiment: biochemical. Conditions: concluded from reversibility of the ω-transaminase activity. On the procedure: as §2, §1
Enzyme activity in the forward direction (i.e., pimelate semialdehyde to 7-aminoheptanoate) was confirmed for the transaminases of SEQ ID NO 10, SEQ ID NO 11 and SEQ ID NO 13. Enzyme activity assays were performed in a buffer composed of a final concentration of 50 mM HEPES buffer (pH=7.5), 10 mM pimelate semialdehyde, 10 mM L-alanine and 100 μM pyridoxyl 5′ phosphate. Each enzyme activity assay reaction was initiated by adding a cell free extract of the ω-transaminase gene product or the empty vector control to the assay buffer containing the pimelate semialdehyde and incubated at 25° C. for 4 h, with shaking at 250 rpm. The formation of pyruvate was quantified via RP-HPLC.

The conditions of experiment [7]: Kaulmann et al., 2007; cited from earlier work.

B1: β-ketothiolase encoded by bktB from Cupriavidus necator: β-ketothiolase classified under EC 2.3.1.16, gene product of bktB (protein, UniProt Q0KBP1 1-394, looked up)
Beta-ketothiolase BktB: MTREVVVVSGVRTAIGTFGGSLKDVAPAELGALVVREALARAQVSGDDVGHVVFGNVIQTEPRDMYLGRVAAVNGGVTINAPALTVNRLCGSGLQAIVSAAQTILLGDTDVAIGGGAESMSRAPYLAPAARWGARMGDAGLVDMMLGALHDPFHRIHMGVTAENVAKEYDISRAQQDEAALESHRRASAAIKAGYFKDQIVPVVSKGRKGDVTFDTDEHVRHDATIDDMTKLRPVFVKENGTVTAGNASGLNDAAAAVVMMERAEAERRGLKPLARLVSYGHAGVDPKAMGIGPVPATKIALERAGLQVSDLDVIEANEAFAAQACAVTKALGLDPAKVNPNGSGISLGHPIGATGALITVKALHELNRVQGRYALVTMCIGGGQGIAAIFERI
With B1, the “substrates accepted, forming the CoA-activated C7 aliphatic backbone” value in experiment [1] was “accepts propanoyl-CoA and pentanoyl-CoA as substrates”.

B2: SEQ ID NO 12: Escherichia coli diamine ω-transaminase, Genbank Accession No. AAA57874.1 (protein, listed as Escherichia coli)
chain: MNRLPSSASALACSAHALNLIEKRTLDHEEMKALNREVIEYFKEHVNPGFLEYRKSVTAGGDYGAVEWQAGSLNTLVDTQGQEFIDCLGGFGIFNVGHRNPVVVSAVQNQLAKQPLHSQELLDPLRAMLAKTLAALTPGKLKYSFFCNSGTESVEAALKLAKAYQSPRGKFTFIATSGAFHGKSLGALSATAKSTFRKPFMPLLPGFRHVPFGNIEAMRTALNECKKTGDDVAAVILEPIQGEGGVILPPPGYLTAVRKLCDEFGALMILDEVQTGMGRTGKMFACEHENVQPDILCLAKALGGGVMPIGATIATEEVFSVLFDNPFLHTTTFGGNPLACAAALATINVLLEQNLPAQAEQKGDMLLDGFRQLAREYPDLVQEARGKGMLMAIEFVDNEIGYNFASEMFRQRVLVAGTLNNAKTIRIEPPLTLTIEQCELVIKAARKALAAMRVSVEEA
B2: the diamine substrate range entry in experiment [2] was “accepts a broad range of diamine carbon chain length substrates”.

B3: SEQ ID NO 4: Segniliparus rugosus carboxylate reductase, Genbank Accession No. EFV11917.1 (protein, listed as Segniliparus rugosus)
chain: MGDGEERAKRFFQRIGELSATDPQFAAAAPDPAVVEAVSDPSLSFTRYLDTLMRGYAERPALAHRVGAGYETISYGELWARVGAIAAAWQADGLAPGDFVATVGFTSPDYVAVDLAAARSGLVSVPLQAGASLAQLVGILEETEPKVLAASASSLEGAVACALAAPSVQRLVVFDLRGPDASESAADERRGALADAEEQLARAGRAVVVETLADLAARGEALPEAPLFEPAEGEDPLALLIYTSGSTGAPKGAMYSQRLVSQLWGRTPVVPGMPNISLHYMPLSHSYGRAVLAGALSAGGTAHFTANSDLSTLFEDIALARPTFLALVPRVCEMLFQESQRGQDVAELRERVLGGRLLVAVCGSAPLSPEMRAFMEEVLGFPLLDGYGSTEALGVMRNGIIQRPPVIDYKLVDVPELGYRTTDKPYPRGELCIRSTSLISGYYKRPEITAEVFDAQGYYKTGDVMAEIAPDHLVYVDRSKNVLKLSQGEFVAVAKLEAAYGTSPYVKQIFVYGNSERSFLLAVVVPNAEVLGARDQEEAKPLIAASLQKIAKEAGLQSYEVPRDFLIETEPFTTQNGLLSEVGKLLRPKLKARYGEALEARYDEIAHGQADELRALRDGAGQRPVVETVVRAAVAISGSEGAEVGPEANFADLGGDSLSALSLANLLHDVFEVEVPVRIIIGPTASLAGIAKHIEAERAGASAPTAASVHGAGATRIRASELTLEKFLPEDLLAAAKGLPAADQVRTVLLTGANGWLGRFLALEQLERLARSGQDGGKLICLVRGKDAAAARRRIEETLGTDPALAARFAELAEGRLEVVPGDVGEPKFGLDDAAWDRLAEEVDVIVHPAALVNHVLPYHQLFGPNVVGTAEIIRLAITAKRKPVTYLSTVAVAAGVEPSSFEEDGDIRAVVPERPLGDGYANGYGNSKWAGEVLLREAHELVGLPVAVFRSDMILAHTRYTGQLNVPDQFTRLVLSLLATGIAPKSFYQQGAAGERQRAHYDGIPVDFTAEAITTLGAEPSWFDGGAGFRSFDVFNPHHDGVGLDEFVDWLIEAGHPISRIDDHKEWFARFETAVRGLPEAQRQHSLLPLLRAYSFPHPPVDGSVYPTGKFQGAVKAAQVGSDHDVPHLGKALIVKYADDLKALGLL
For the molecule B3, the “acceptance of pimelate as substrate (NADPH consumption, absorbance at 340 nm)” value in experiment [3] was “accepted pimelate as substrate”.

B4: SEQ ID NO 8: Chromobacterium violaceum ω-transaminase, Genbank Accession No. AAQ59697.1 (protein, listed as Chromobacterium violaceum)
chain: MQKQRTTSQWRELDAAHHLHPFTDTASLNQAGARVMTRGEGVYLWDSEGNKIIDGMAGLWCVNVGYGRKDFAEAARRQMEELPFYNTFFKTTHPAVVELSSLLAEVTPAGFDRVFYTNSGSESVDTMIRMVRRYWDVQGKPEKKTLIGRWNGYHGSTIGGASLGGMKYMHEQGDLPIPGMAHIEQPWWYKHGKDMTPDEFGVVAARWLEEKILEIGADKVAAFVGEPIQGAGGVIVPPATYWPEIERICRKYDVLLVADEVICGFGRTGEWFGHQHFGFQPDLFTAAKGLSSGYLPIGAVFVGKRVAEGLIAGGDFNHGFTYSGHPVCAAVAHANVAALRDEGIVQRVKDDIGPYMQKRWRETFSRFEHVDDVRGVGMVQAFTLVKNKAKRELFPDFGEIGTLCRDIFFRNNLIMRACGDHIVSAPPLVMTRAEVDEMLAVAERCLEEFEQTLKARGLA
For the molecule B4, in experiment [4] (cell free extract, 10 mM 7-aminoheptanol, 10 mM pyruvate, 25° C., 4 h, against empty vector control, FIG. 19), the “acceptance of 7-aminoheptanol as substrate (formation of L-alanine, RP-HPLC)” value is reported as “accepted 7-aminoheptanol as substrate”. Further, in experiment [4] (concluded from reversibility of the ω-transaminase activity (Example 2)), the “acceptance of 7-oxoheptanol as substrate, forming 7-aminoheptanol (concluded from reversibility)” value is reported as “accept 7-oxoheptanol as substrate”. Moreover, the “acceptance of 7-aminoheptanoate as substrate (formation of L-alanine from pyruvate, RP-HPLC)” value in experiment [5] is “accepted 7-aminoheptanote as substrate”. In experiment [6], the “acceptance of pimelate semialdehyde as substrate, synthesizing 7-aminoheptanoate (conclusion from confirmed reversibility)” value was “accepted pimelate semialdehyde as substrate”. The “activity accepting 6-aminohexanoic acid as amino donor” value in experiment [7] is given as “accepting 6-aminohexanoic acid as amino donor”.
